Source: publication doi:10.1101/2024.12.27.630466

Biological target: ErlA
Assay: SEC

ErlB (natural protein)
stoichiometry N (ErlB per ErlA (4:4)): 1
